Test results taken from patent US20110059889A1 (SYNTONIX PHARMACEUTICALS, published 2011).
Bridge positions count the residues as written; N and C are the ends. Square brackets hold non-standard residues; d marks the D form. Ends that are not written are not given here. Phe(F5) = N[C@@H](Cc1c(F)c(F)c(F)c(F)c1F)C(=O)O; Phe(4-NH2) = Nc1ccc(C[C@H](N)C(=O)O)cc1; Phe(3-Me) = Cc1cccc(C[C@H](N)C(=O)O)c1; Phe(4-Me) = Cc1ccc(C[C@H](N)C(=O)O)cc1; NMeL = CN[C@@H](CC(C)C)C(=O)O; Pen = CC(C)(S)[C@H](N)C(=O)O; hCys = N[C@@H](CCS)C(=O)O; Sar = CNCC(=O)O

B1: Peptide No. 27 (peptide)
peptide: QRFCTGHFGGLYP[hCys]NGP-NH2
modifications: disulfide 4-14; N-terminus assumed
SMILES: CC(C)C[C@@H]1NC(=O)CNC(=O)CNC(=O)[C@H](Cc2ccccc2)NC(=O)[C@H](Cc2c[nH]cn2)NC(=O)CNC(=O)[C@H]([C@@H](C)O)NC(=O)[C@@H](NC(=O)[C@H](Cc2ccccc2)NC(=O)[C@H](CCCNC(=N)N)NC(=O)[C@@H](N)CCC(N)=O)CSSCC[C@@H](C(=O)N[C@@H](CC(N)=O)C(=O)NCC(=O)N2CCC[C@H]2C(N)=O)NC(=O)[C@@H]2CCCN2C(=O)[C@H](Cc2ccc(O)cc2)NC1=O
B2: Peptide No. 28 (peptide)
peptide: QRF[hCys]TGHFGGLYP[hCys]NGP-NH2
modifications: disulfide 4-14; N-terminus assumed
SMILES: CC(C)C[C@@H]1NC(=O)CNC(=O)CNC(=O)[C@H](Cc2ccccc2)NC(=O)[C@H](Cc2c[nH]cn2)NC(=O)CNC(=O)[C@H]([C@@H](C)O)NC(=O)[C@@H](NC(=O)[C@H](Cc2ccccc2)NC(=O)[C@H](CCCNC(=N)N)NC(=O)[C@@H](N)CCC(N)=O)CCSSCC[C@@H](C(=O)N[C@@H](CC(N)=O)C(=O)NCC(=O)N2CCC[C@H]2C(N)=O)NC(=O)[C@@H]2CCCN2C(=O)[C@H](Cc2ccc(O)cc2)NC1=O
B3: Peptide No. 34 (peptide)
peptide: QRF[Pen]TGHFGGLYP[Pen]NGP-NH2
modifications: disulfide 4-14; N-terminus assumed
SMILES: CC(C)C[C@@H]1NC(=O)CNC(=O)CNC(=O)[C@H](Cc2ccccc2)NC(=O)[C@H](Cc2c[nH]cn2)NC(=O)CNC(=O)[C@H]([C@@H](C)O)NC(=O)[C@@H](NC(=O)[C@H](Cc2ccccc2)NC(=O)[C@H](CCCNC(=N)N)NC(=O)[C@@H](N)CCC(N)=O)C(C)(C)SSC(C)(C)[C@@H](C(=O)N[C@@H](CC(N)=O)C(=O)NCC(=O)N2CCC[C@H]2C(N)=O)NC(=O)[C@@H]2CCCN2C(=O)[C@H](Cc2ccc(O)cc2)NC1=O
B4: Peptide No. 70 (peptide)
peptide: QRF[hCys]TGHFGGLYP[Pen]NGP-NH2
modifications: disulfide 4-14; N-terminus assumed
SMILES: CC(C)C[C@@H]1NC(=O)CNC(=O)CNC(=O)[C@H](Cc2ccccc2)NC(=O)[C@H](Cc2c[nH]cn2)NC(=O)CNC(=O)[C@H]([C@@H](C)O)NC(=O)[C@@H](NC(=O)[C@H](Cc2ccccc2)NC(=O)[C@H](CCCNC(=N)N)NC(=O)[C@@H](N)CCC(N)=O)CCSSC(C)(C)[C@@H](C(=O)N[C@@H](CC(N)=O)C(=O)NCC(=O)N2CCC[C@H]2C(N)=O)NC(=O)[C@@H]2CCCN2C(=O)[C@H](Cc2ccc(O)cc2)NC1=O
B5: Peptide No. 295 (peptide)
peptide: QRF[Pen]TGHFG[dP]LYP[Pen]NGP-NH2
modifications: disulfide 4-14; N-terminus assumed
SMILES: CC(C)C[C@@H]1NC(=O)[C@H]2CCCN2C(=O)CNC(=O)[C@H](Cc2ccccc2)NC(=O)[C@H](Cc2c[nH]cn2)NC(=O)CNC(=O)[C@H]([C@@H](C)O)NC(=O)[C@@H](NC(=O)[C@H](Cc2ccccc2)NC(=O)[C@H](CCCNC(=N)N)NC(=O)[C@@H](N)CCC(N)=O)C(C)(C)SSC(C)(C)[C@@H](C(=O)N[C@@H](CC(N)=O)C(=O)NCC(=O)N2CCC[C@H]2C(N)=O)NC(=O)[C@@H]2CCCN2C(=O)[C@H](Cc2ccc(O)cc2)NC1=O
B6: Peptide No. 46 (peptide)
peptide: QRFCTGHFGXLYPCNGP
modifications: Pen 4; Aib (aminoisobutyric acid) 10; disulfide 4-14; C-terminal amide
B7: Peptide No. 41 (peptide)
peptide: QRF[Pen]TGHFG[dR]LYPCNGP-NH2
modifications: disulfide 4-14; N-terminus assumed
SMILES: CC(C)C[C@@H]1NC(=O)[C@@H](CCCNC(=N)N)NC(=O)CNC(=O)[C@H](Cc2ccccc2)NC(=O)[C@H](Cc2c[nH]cn2)NC(=O)CNC(=O)[C@H]([C@@H](C)O)NC(=O)[C@@H](NC(=O)[C@H](Cc2ccccc2)NC(=O)[C@H](CCCNC(=N)N)NC(=O)[C@@H](N)CCC(N)=O)C(C)(C)SSC[C@@H](C(=O)N[C@@H](CC(N)=O)C(=O)NCC(=O)N2CCC[C@H]2C(N)=O)NC(=O)[C@@H]2CCCN2C(=O)[C@H](Cc2ccc(O)cc2)NC1=O
B8: Peptide No. 47 (peptide)
peptide: QRF[Pen]TGHF[dD]GLYPCNGP-NH2
modifications: disulfide 4-14; N-terminus assumed
SMILES: CC(C)C[C@@H]1NC(=O)CNC(=O)[C@@H](CC(=O)O)NC(=O)[C@H](Cc2ccccc2)NC(=O)[C@H](Cc2c[nH]cn2)NC(=O)CNC(=O)[C@H]([C@@H](C)O)NC(=O)[C@@H](NC(=O)[C@H](Cc2ccccc2)NC(=O)[C@H](CCCNC(=N)N)NC(=O)[C@@H](N)CCC(N)=O)C(C)(C)SSC[C@@H](C(=O)N[C@@H](CC(N)=O)C(=O)NCC(=O)N2CCC[C@H]2C(N)=O)NC(=O)[C@@H]2CCCN2C(=O)[C@H](Cc2ccc(O)cc2)NC1=O
B9: Peptide No. 217 (peptide)
peptide: RF[Pen]TGHF[dF][Sar][NMeL]YPC-NH2
modifications: disulfide 3-13; N-terminus assumed
SMILES: CC(C)C[C@H]1C(=O)N[C@@H](Cc2ccc(O)cc2)C(=O)N2CCC[C@H]2C(=O)N[C@H](C(N)=O)CSSC(C)(C)[C@H](NC(=O)[C@H](Cc2ccccc2)NC(=O)[C@@H](N)CCCNC(=N)N)C(=O)N[C@@H]([C@@H](C)O)C(=O)NCC(=O)N[C@@H](Cc2c[nH]cn2)C(=O)N[C@@H](Cc2ccccc2)C(=O)N[C@H](Cc2ccccc2)C(=O)N(C)CC(=O)N1C
B10: Peptide No. 90 (peptide)
peptide: QRF[Pen]TGH[Phe(4-Me)]GGLYPCNGP-NH2
modifications: disulfide 4-14; N-terminus assumed
SMILES: Cc1ccc(C[C@@H]2NC(=O)[C@H](Cc3c[nH]cn3)NC(=O)CNC(=O)[C@H]([C@@H](C)O)NC(=O)[C@@H](NC(=O)[C@H](Cc3ccccc3)NC(=O)[C@H](CCCNC(=N)N)NC(=O)[C@@H](N)CCC(N)=O)C(C)(C)SSC[C@@H](C(=O)N[C@@H](CC(N)=O)C(=O)NCC(=O)N3CCC[C@H]3C(N)=O)NC(=O)[C@@H]3CCCN3C(=O)[C@H](Cc3ccc(O)cc3)NC(=O)[C@H](CC(C)C)NC(=O)CNC(=O)CNC2=O)cc1
B11: Peptide No. 59 (peptide)
peptide: QRFCTGHXGGLYPCNGP
modifications: Pen 4; 3-PyridylAla 8; disulfide 4-14; C-terminal amide
B12: Peptide No. 57 (peptide)
peptide: QRF[Pen]TGH[Phe(F5)]GGLYPCNGP-NH2
modifications: disulfide 4-14; N-terminus assumed
SMILES: CC(C)C[C@@H]1NC(=O)CNC(=O)CNC(=O)[C@H](Cc2c(F)c(F)c(F)c(F)c2F)NC(=O)[C@H](Cc2c[nH]cn2)NC(=O)CNC(=O)[C@H]([C@@H](C)O)NC(=O)[C@@H](NC(=O)[C@H](Cc2ccccc2)NC(=O)[C@H](CCCNC(=N)N)NC(=O)[C@@H](N)CCC(N)=O)C(C)(C)SSC[C@@H](C(=O)N[C@@H](CC(N)=O)C(=O)NCC(=O)N2CCC[C@H]2C(N)=O)NC(=O)[C@@H]2CCCN2C(=O)[C@H](Cc2ccc(O)cc2)NC1=O
B13: Peptide No. 55 (peptide)
peptide: QRF[Pen]TGH[Phe(4-NH2)]GGLYPCNGP-NH2
modifications: disulfide 4-14; N-terminus assumed
SMILES: CC(C)C[C@@H]1NC(=O)CNC(=O)CNC(=O)[C@H](Cc2ccc(N)cc2)NC(=O)[C@H](Cc2c[nH]cn2)NC(=O)CNC(=O)[C@H]([C@@H](C)O)NC(=O)[C@@H](NC(=O)[C@H](Cc2ccccc2)NC(=O)[C@H](CCCNC(=N)N)NC(=O)[C@@H](N)CCC(N)=O)C(C)(C)SSC[C@@H](C(=O)N[C@@H](CC(N)=O)C(=O)NCC(=O)N2CCC[C@H]2C(N)=O)NC(=O)[C@@H]2CCCN2C(=O)[C@H](Cc2ccc(O)cc2)NC1=O
B14: Peptide No. 89 (peptide)
peptide: QRF[Pen]TGH[Phe(3-Me)]GGLYPCNGP-NH2
modifications: disulfide 4-14; N-terminus assumed
SMILES: Cc1cccc(C[C@@H]2NC(=O)[C@H](Cc3c[nH]cn3)NC(=O)CNC(=O)[C@H]([C@@H](C)O)NC(=O)[C@@H](NC(=O)[C@H](Cc3ccccc3)NC(=O)[C@H](CCCNC(=N)N)NC(=O)[C@@H](N)CCC(N)=O)C(C)(C)SSC[C@@H](C(=O)N[C@@H](CC(N)=O)C(=O)NCC(=O)N3CCC[C@H]3C(N)=O)NC(=O)[C@@H]3CCCN3C(=O)[C@H](Cc3ccc(O)cc3)NC(=O)[C@H](CC(C)C)NC(=O)CNC(=O)CNC2=O)c1
B15: Peptide No. 62 (peptide)
peptide: QRFCTGHXGGLYPCNGP
modifications: Pen 4; 2-napthylalanine 8; disulfide 4-14; C-terminal amide

molecular target: T1, soluble human FcRn (shFcRn) (human, UniProt P55899 24-297; P61769 21-119); experiment: SPR pH 6
T1 construct: Biotinylated for the ELISA, amine-coupled to a CM5 chip for SPR; also called biotinylated shFcRn
Description: (§1) The following steps were performed to cross-link soluble human or cynomolgus FcRn to the dextran surface of a CM5 sensor chip (Biacore AB, Uppsala, Sweden) by an amine coupling reaction involving 1-ethyl-(3-dimethylaminopropyl)-carbodiimide hydrochloride (EDC) (Biacore AB, Uppsala, Sweden) and N-hydroxysuccinimide (NHS) (Biacore AB, Uppsala, Sweden) as recommended by Biacore (BIAapplications Handbook, version AB, section 4.2, Biacore AB, Uppsala, Sweden). […] Residual sites on the FcRn flow cell were blocked with 1 M ethanolamine hydrochloride pH 8.5 (Biacore AB, Uppsala, Sweden). A control flow cell was blocked with ethanolamine for reference subtraction. For analysis of the monomeric peptides, FcRn was coated to a final density of 4000-5000 response units (RU). For analysis of the peptide dimers, FcRn was coated to a density of 2000-2500 RU. All SPR measurements were performed using a BIACORE 3000 Instrument (Biacore AB Uppsala, Sweden). For measurements done at either pH 6 or pH 7.4, experiments were performed in 50 mM phosphate, 100 mM sodium chloride, 0.01% surfactant P20 (Biacore AB, Uppsala, Sweden).
(§2) Ten, 2-fold dilutions of the peptide were injected over the FcRn-CM5 chip at a rate of 20 μl/min for 2 min. The peptide was dissociated from the chip for 2.5 minutes with buffer. Any remaining peptide was removed from the chip with a 30 second injection of HBS-P buffer (Biacore AB, Uppsala, Sweden) at a rate of 30 μl/min. Sensorgrams were generated and analyzed using BiaEval software version 3.1 (Biacore AB, Uppsala, Sweden). The equilibrium RU observed for each injection was plotted against concentration. The equilibrium KD values were derived by analysis of the plots using the steady state affinity model included in the BiaEval software.

Row | Kd [µM] | Binder
1 | 3.9 | B1
2 | 3.8 | B2
3 | 0.37 | B3
4 | 2.1 | B4
5 | 0.28 | B5

molecular target: T1, soluble human FcRn (shFcRn); experiment: IgG competition ELISA

Row | IC50 [µM] | Binder
6 | 2.4 | B6
7 | 8.1 | B7

molecular target: T1, soluble human FcRn (shFcRn); experiment: SPR pH 6; remark: another data set of the same source

Row | Kd [µM] | Binder
8 | 0.48 | B6
9 | 0.83 | B7
10 | 0.58 | B8

molecular target: T1, soluble human FcRn (shFcRn); experiment: SPR pH 6; remark: another data set of the same source
Description: as §1, §2

Row | Kd [µM] | Binder
11 | 1.4 | B9

molecular target: T1, soluble human FcRn (shFcRn); experiment: SPR pH 6; remark: another data set of the same source
Description: as §1, §2

Row | Kd [µM] | Binder
12 | 0.2 | B10
13 | 19 | B11
14 | 70 | B12
15 | 1 | B13
16 | 0.67 | B14
17 | 11 | B15

molecular target: T1, soluble human FcRn (shFcRn); experiment: SPR pH 7.4
Description: as §1, §2

Row | Kd [µM] | Binder
18 | 5.3 | B6
19 | 8.8 | B7
20 | 4.9 | B8

molecular target: T1, soluble human FcRn (shFcRn); experiment: IgG competition ELISA; remark: another data set of the same source
Description: (§3) The wells were coated with 100 μl/well of 1 μg/ml biotinylated-shFcRn in Buffer A. The plate was sealed and incubated at 37° C. for 2 hours. Afterwards, the plate was washed with 200 μl/well of Buffer B (Buffer B: 100 mM MES pH 6, 150 mM NaCl, 0.5% BSA IgG-free (Jackson ImmunoResearch, West Grove, Pa.), 0.05% Tween-20). […] To allow for mixing, the plate was rocked for 2 minutes, sealed and incubated at 37° C. for 2 hours. […] The plate was covered, incubated for 30 minutes at room temperature and washed 4 times with 200 μl/well of ice-cold buffer B. SureBlue TMB substrate solution (100 μl/well, KPL, Gaithersburg, Md.) was added and the plate was allowed to incubate at room temperature until color developed, which took 5 to 10 minutes. Once color developed, 100 μl/well of TMB stop solution (KPL, Gaithersburg, Md.) was added and the absorbance was measured at 450 nm. The data was plotted as absorbance vs. peptide concentration to derive the inhibitory concentration 50% (IC₅₀) values.

Row | IC50 [µM] | Binder
21 | 60 | B11
22 | 4.1 | B14
23 | 90 | B15

molecular target: T1, soluble human FcRn (shFcRn); experiment: IgG competition ELISA; remark: another data set of the same source
Description: as §3

Row | IC50 [µM] | Binder
24 | 21 | B1
25 | 20 | B2
26 | 2 | B3
27 | 1.6 | B5
